One substance from PMC4854285 can be followed below.

The target of this assay is biotinylated peptide composed of residues 656-683 of the gp41 MPER (RRR-…-RRK-biotin) (HIV-1). In words: SPR.

The substance 10E8 antigen-binding fragment (Fab) had a Kd of 17 nM.
